Data set [1] deals with tRNA-guanine transglycosylase (TGT) (Escherichia coli) (UniProt P0A847). The conditions noted are these: urea PAGE shift.
For data set [2] the target is unchanged. To be noted: urea PAGE shift; best of composite hairpins.

Read-outs that look alike come from different tables or passages of the source.

Chain of tRNA-guanine transglycosylase (TGT) (Escherichia coli) (P0A847 whole entry): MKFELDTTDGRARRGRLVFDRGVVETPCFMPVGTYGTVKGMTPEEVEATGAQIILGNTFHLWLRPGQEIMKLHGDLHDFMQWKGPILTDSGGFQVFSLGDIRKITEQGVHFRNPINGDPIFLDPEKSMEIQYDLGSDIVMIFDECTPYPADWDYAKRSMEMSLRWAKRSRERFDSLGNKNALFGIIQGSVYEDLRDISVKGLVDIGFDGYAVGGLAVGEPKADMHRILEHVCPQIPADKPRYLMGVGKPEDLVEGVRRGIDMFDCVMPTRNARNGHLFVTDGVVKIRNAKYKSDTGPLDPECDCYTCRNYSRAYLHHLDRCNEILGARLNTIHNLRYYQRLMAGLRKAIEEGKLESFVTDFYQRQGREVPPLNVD

Take His 17 nt DNA hairpin: the activity in data set [1] came out at 40 % labeled. For Tyr 17 nt DNA hairpin, in data set [1] (printed as ~-5%), the activity was determined as 5 % labeled. Regarding Asp 17 nt DNA hairpin, in data set [1], the activity came out at 40 % labeled. For the substance His stem-Asp loop hairpin, the activity in data set [2] is over 50 % labeled.

These data come from patent US20240247250.
